# From publication PMC9527358, “Oligomeric state of the aspartate:alanine transporter from Tetragenococcus halophilus” (Journal of Biochemistry, 2022)
# Legend:
# [1] = target: AspT L60C mutant (three endogenous Cys replaced with alanine, then leucine 60 replaced with Cys) (Tetragenococcus halophilus) (UniProt Q8L3K8); experiment: cross-linking; spontaneous inter-molecular disulphide; purified protein (0.5 ug) in SDS sample buffer without 2-mercaptoethanol (non-reducing) or with 5% (reducing), 37°C 30 min; SDS-PAGE (Coomassie) and western blot with a His-tag antibody
# [2] = target: the molecule itself; experiment: SEC-MALS; purified AspT in DDM (2.4 mg/ml, dialysed); Superdex 200 Increase 10/300 GL; 20 mM HEPES-NaOH pH 7.0, 500 mM NaCl, 200 mM Asp-KOH, 0.01% DDM, 20% glycerol; 0.8 ml/min; MALS, RI and UV detectors
Molecule,stoichiometry N [1],stoichiometry N [2]
"AspT L60C mutant (three endogenous Cys replaced with alanine, then leucine 60 replaced with Cys) (from UniProt Q8L3K8 1-543) (natural protein)",2,–
"aspartate:alanine antiporter (AspT) of Tetragenococcus halophilus, wild type, histidine-tagged (natural protein, UniProt Q8L3K8 1-543, looked up, aspartate:alanine antiporter AspT, Tetragenococcus halophilus, 543 amino-acid residues (57.2 kDa); expressed from the asp operon in pTrc99A (pTrcAspD/T-His); also called AspT WT; WT; source: Ni Sepharose Excel and SEC for the comparison with L60C; not shown: His6, internal (in loop 5), kept) MNAIGNFLVGTPVFTIFICLALGYLLGKLKIGSFTLGATVGVLIVALLIGQLGVFPRDTLLGDIFFDFFMFAIGYRVGPSFISSMKKFGAKIVYATLIFLVSAFIVAYACFKMFHIGPGIAAGIIAGGLTQSAVIGSSLETISKLPISDHLKTLYSNQIPIVYTLTYVFGTIGVLIFLRDIMPKLMHIDLKKQAVKTAKELDMIPVPVIVASTHFYTINDGSSLIGQTLGTVNTKFAKGLVAAGLNDSADMASVINAGDVLAISGGIDEIGRAVQEFNLLEVTGKTKAYVSKQVVLKKNFSADVLKNAQDKGVLVATLAGDVMDPAQFSTLKPAESVTLVGQKDAVSEVQSQLGRLRAAENIINYSWFALGIALSAALGIVGTKVSGVPIALGGGTASLIVGLVQSIYRDKHAHMDTIPDSLLEFFQSIGLNLFIATVGLSAAKTFISAIQSMGISVLLIGAVISILPHIITFVICYYLMKMEPISIIGAQTGADTLSAALNDVSERVGSDASPFFAAAVAPAYAIGNIFLTLMGPIFIVLLS",–,2
